What follows are substances tested against T1, CD226 (human) (UniProt Q15762) (assay: flow cytometry, cells expressing target, 25 nM).
T1 sequence: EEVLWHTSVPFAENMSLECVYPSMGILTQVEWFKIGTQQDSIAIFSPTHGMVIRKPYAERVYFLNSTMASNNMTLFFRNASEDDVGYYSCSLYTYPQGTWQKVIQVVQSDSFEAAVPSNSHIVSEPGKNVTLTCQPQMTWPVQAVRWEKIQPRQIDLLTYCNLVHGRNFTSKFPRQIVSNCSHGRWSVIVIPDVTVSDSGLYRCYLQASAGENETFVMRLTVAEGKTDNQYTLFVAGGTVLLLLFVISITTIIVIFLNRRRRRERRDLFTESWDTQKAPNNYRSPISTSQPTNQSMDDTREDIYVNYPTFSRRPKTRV

MFI at 25 nM	Substance
54300 MFI	CD155 variant IgV-Fc V9I, P18F, A47E, G50S, E68G, L79P, F91S, T107M (from UniProt P15151 24-139) (Fc fusion)
640 MFI	CD155 variant IgV-Fc P18T, W46C, H49R, S65A, S67V, A76T, L79P, S87T, L104M (from UniProt P15151 24-139) (Fc fusion)
913 MFI	CD155 variant IgV-Fc V11A, P18F, D23A, L79P, G80D, V95A, T107M (from UniProt P15151 24-139) (Fc fusion)
676 MFI	CD155 variant IgV-Fc P18S, H59N, V75A, L79P, A81T, F91S, L104M, T107M (from UniProt P15151 24-139) (Fc fusion)
15700 MFI	CD155 variant IgV-Fc P18F, E51V, S54G, Q60R, L79Q, E82G, S87T, M90I, F91S, G92R, T107M (from UniProt P15151 24-139) (Fc fusion)
989 MFI	CD155 variant IgV-Fc V9A, P18S, M36T, S65G, L79P, F91S, L104T, G111R, S112I (from UniProt P15151 24-139) (Fc fusion)

What follows are substances tested against T2, CD96 (UniProt P40200) (assay: flow cytometry, cells expressing target, 25 nM).
T2 sequence (looked up): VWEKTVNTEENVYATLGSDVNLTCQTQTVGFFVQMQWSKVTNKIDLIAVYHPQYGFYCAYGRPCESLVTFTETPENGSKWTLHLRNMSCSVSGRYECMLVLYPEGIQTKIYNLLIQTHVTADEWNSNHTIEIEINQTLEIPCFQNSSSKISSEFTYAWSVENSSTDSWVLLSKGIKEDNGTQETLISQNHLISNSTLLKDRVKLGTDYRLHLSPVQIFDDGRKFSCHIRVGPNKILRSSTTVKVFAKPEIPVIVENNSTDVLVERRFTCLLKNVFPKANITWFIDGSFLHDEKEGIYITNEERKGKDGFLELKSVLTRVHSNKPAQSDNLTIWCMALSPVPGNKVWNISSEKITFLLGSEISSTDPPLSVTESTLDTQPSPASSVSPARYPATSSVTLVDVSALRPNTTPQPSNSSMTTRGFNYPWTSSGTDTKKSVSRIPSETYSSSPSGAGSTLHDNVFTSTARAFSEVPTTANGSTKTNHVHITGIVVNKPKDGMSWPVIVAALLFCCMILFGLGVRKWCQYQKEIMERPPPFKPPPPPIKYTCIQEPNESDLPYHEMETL

MFI at 25 nM	Substance
67400 MFI	CD155 variant IgV-Fc V9L, P18L, M55V, S69L, L79P, A81E, F91S, T107M (from UniProt P15151 24-139) (Fc fusion)
3640 MFI	CD155 variant IgV-Fc V10G, P18T, L72Q, L79P, F91S, T107M (from UniProt P15151 24-139) (Fc fusion)
102000 MFI	CD155 variant IgV-Fc V9I, P18F, A47E, G50S, E68G, L79P, F91S, T107M (from UniProt P15151 24-139) (Fc fusion)
717 MFI	CD155 variant IgV-Fc P18T, W46C, H49R, S65A, S67V, A76T, L79P, S87T, L104M (from UniProt P15151 24-139) (Fc fusion)
33900 MFI	CD155 variant IgV-Fc V11A, P18F, D23A, L79P, G80D, V95A, T107M (from UniProt P15151 24-139) (Fc fusion)
759 MFI	CD155 variant IgV-Fc P18S, H59N, V75A, L79P, A81T, F91S, L104M, T107M (from UniProt P15151 24-139) (Fc fusion)
61800 MFI	CD155 variant IgV-Fc P18F, E51V, S54G, Q60R, L79Q, E82G, S87T, M90I, F91S, G92R, T107M (from UniProt P15151 24-139) (Fc fusion)
97800 MFI	CD155 variant IgV-Fc D8G, V9I, V11A, P18T, T26M, S52P, L79P, F91S, G92A, T107L, V115A (from UniProt P15151 24-139) (Fc fusion)

What follows are substances tested against CD112R (human) (UniProt Q6DKI7) (assay: flow cytometry, cells expressing target, 25 nM).
Sequence of CD112R (human) (Q6DKI7 whole entry): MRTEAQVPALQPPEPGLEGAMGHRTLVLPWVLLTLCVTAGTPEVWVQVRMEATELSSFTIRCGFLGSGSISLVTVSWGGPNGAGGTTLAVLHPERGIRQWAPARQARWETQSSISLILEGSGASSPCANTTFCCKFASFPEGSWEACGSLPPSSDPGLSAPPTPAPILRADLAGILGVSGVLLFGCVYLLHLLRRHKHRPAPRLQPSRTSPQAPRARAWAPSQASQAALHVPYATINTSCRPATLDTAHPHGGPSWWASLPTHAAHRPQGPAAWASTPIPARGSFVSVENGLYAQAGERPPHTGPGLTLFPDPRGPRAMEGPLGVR

MFI at 25 nM	Substance
920 MFI	CD155 variant IgV-Fc V9L, P18L, M55V, S69L, L79P, A81E, F91S, T107M (from UniProt P15151 24-139) (Fc fusion)
863 MFI	CD155 variant IgV-Fc V10G, P18T, L72Q, L79P, F91S, T107M (from UniProt P15151 24-139) (Fc fusion)
752 MFI	CD155 variant IgV-Fc V9I, P18F, A47E, G50S, E68G, L79P, F91S, T107M (from UniProt P15151 24-139) (Fc fusion)
803 MFI	CD155 variant IgV-Fc P18T, W46C, H49R, S65A, S67V, A76T, L79P, S87T, L104M (from UniProt P15151 24-139) (Fc fusion)
830 MFI	CD155 variant IgV-Fc V11A, P18F, D23A, L79P, G80D, V95A, T107M (from UniProt P15151 24-139) (Fc fusion)
915 MFI	CD155 variant IgV-Fc P18S, H59N, V75A, L79P, A81T, F91S, L104M, T107M (from UniProt P15151 24-139) (Fc fusion)
1010 MFI	CD155 variant IgV-Fc P18F, E51V, S54G, Q60R, L79Q, E82G, S87T, M90I, F91S, G92R, T107M (from UniProt P15151 24-139) (Fc fusion)
886 MFI	CD155 variant IgV-Fc V9A, P18S, M36T, S65G, L79P, F91S, L104T, G111R, S112I (from UniProt P15151 24-139) (Fc fusion)
817 MFI	CD155 variant IgV-Fc D8G, V9I, V11A, P18T, T26M, S52P, L79P, F91S, G92A, T107L, V115A (from UniProt P15151 24-139) (Fc fusion)

The substances below were run against T3, TIGIT (human) (UniProt Q495A1) (assay: flow cytometry, cells expressing target, 25 nM).
T3 sequence: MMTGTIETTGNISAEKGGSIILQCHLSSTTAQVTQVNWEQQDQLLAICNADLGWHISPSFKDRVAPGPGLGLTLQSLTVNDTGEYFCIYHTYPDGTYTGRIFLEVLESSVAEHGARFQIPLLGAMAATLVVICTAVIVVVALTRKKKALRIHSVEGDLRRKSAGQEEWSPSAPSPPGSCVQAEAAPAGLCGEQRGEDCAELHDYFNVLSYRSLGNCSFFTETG

MFI at 25 nM	Substance
58700 MFI	CD155 variant IgV-Fc V9L, P18L, M55V, S69L, L79P, A81E, F91S, T107M (from UniProt P15151 24-139) (Fc fusion)
4250 MFI	CD155 variant IgV-Fc V10G, P18T, L72Q, L79P, F91S, T107M (from UniProt P15151 24-139) (Fc fusion)
55200 MFI	CD155 variant IgV-Fc V9I, P18F, A47E, G50S, E68G, L79P, F91S, T107M (from UniProt P15151 24-139) (Fc fusion)
918 MFI	CD155 variant IgV-Fc P18T, W46C, H49R, S65A, S67V, A76T, L79P, S87T, L104M (from UniProt P15151 24-139) (Fc fusion)
45200 MFI	CD155 variant IgV-Fc V11A, P18F, D23A, L79P, G80D, V95A, T107M (from UniProt P15151 24-139) (Fc fusion)
800 MFI	CD155 variant IgV-Fc P18S, H59N, V75A, L79P, A81T, F91S, L104M, T107M (from UniProt P15151 24-139) (Fc fusion)
46100 MFI	CD155 variant IgV-Fc P18F, E51V, S54G, Q60R, L79Q, E82G, S87T, M90I, F91S, G92R, T107M (from UniProt P15151 24-139) (Fc fusion)
92500 MFI	CD155 variant IgV-Fc V9A, P18S, M36T, S65G, L79P, F91S, L104T, G111R, S112I (from UniProt P15151 24-139) (Fc fusion)
52500 MFI	CD155 variant IgV-Fc D8G, V9I, V11A, P18T, T26M, S52P, L79P, F91S, G92A, T107L, V115A (from UniProt P15151 24-139) (Fc fusion)

From US20200040059A1
